Assay results: patent publication US20190055291A1 (FONDATION THE ARK, published 2019)
Bridge positions count the residues as written; N and C are the ends. Square brackets hold non-standard residues; d marks the D form. R8 = C=CCCCCCC[C@@](C)(N)C(=O)O; S5 = C=CCCC[C@](C)(N)C(=O)O

B1: 3ac (peptide)
peptide: EQSLXFIRXSDXLLHXV
modifications: X504, X508, X511 and X515 are (S)-2-(4-pentenyl)alanine (two staples); N-terminus acetylated; C-terminus amidated

What was measured:
[1] = target: RSV fusion glycoprotein F (trimeric HR1 target) on mCherry-expressing RSV virus (rHRSV-mCherry) (human RSV (rHRSV), strain ); test: cell-based or functional assay
[2] = target: RSV fusion glycoprotein F (trimeric HR1 target) on recombinant GFP-expressing RSV virus (strain A2) (RSV (strain A2), UniProt P03420 26-574); test: cell-based or functional assay

Binder | EC50 values [µM], rHRSV-mCherry inhibition assay in HEp-2 cells [1] [µM] | EC50, block of RSV-GFP infection of A549 cells (flow cytometry) [2] [µM]
FDASISQVNEKINQSLAFIRKSDELLHNVNAGKST [T118] | 6.33 | –
YDPLVFPSDEFDASISQVNEKINQSLAFIRKSDEL [T108] | – | 20.9
Ac-EKINQSL[R8]FIRKSD[S5]LLHNV-NH2 (staple 8-15) [4e] | – | > 90
B1 | – | 15.3
